First the molecules themselves.
T1: Placenta Growth Factor (PlGF), human (human, UniProt P49763 21-149)
T1 chain: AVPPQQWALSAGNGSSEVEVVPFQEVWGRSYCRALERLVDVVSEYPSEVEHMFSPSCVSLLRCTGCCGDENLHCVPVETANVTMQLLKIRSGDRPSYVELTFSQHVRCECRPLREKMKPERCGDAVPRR

B1: HC 2/SLC 2 (antibody)
chain 1: GQGTLVTVSSASQPVLHQPPAMSSALGTTIRLTCTLRNDHDIGVYSVYWYQQRPGHPPRFLLRYFSQSDKSQGPQVPPRFSGSKDVARNRGYLSISELQPEDEAMYYCAMGARSRCWPRGFQSKHNSVTHVFGSGTQLTVLSQPKATPSVTLFPPSSEELQANKATLVCLMNDFYPGILTVTWKADGTPITQGVEMTTPSKQSNNKYAASSYLSLTPEQWRSRRSYSCQVMHEGSTVEKTVAPAECS
chain 2: MSWAPVLLMLFVYCTGCGPQPVLHQPPAMSSALGTTIRLTCTLRNDHDIGVYSVYWYQQRPGHPPRFLLRYFSQSDKSQGPQVPPRFSGSKDVARNRGYLSISVTHVFGSGTQLTVLSQQVQLVQ
B2: HC 2/SLC 3 (antibody)
chain 1: B1 chain 1
chain 2: MSWAPVLLMLFVYCTGCGPQPVLHQPPAMSSALGTTIRLTCTLRNDHDIGVYSVYWYQQRPGHPPRFLLRYFSQSDKSQGPQVPPRFSGSKDVARNRGYLSISVTHVFGSGTQLTVLSQPQVQLVQ
B3: HC 10/SLC 2 (antibody)
chain 1: GQGTLVTVSSASTKGPSVFPQPVLHQPPAMSSALGTTIRLTCTLRNDHDIGVYSVYWYQQRPGHPPRFLLRYFSQSDKSQGPQVPPRFSGSKDVARNRGYLSISELQPEDEAMYYCAMGARSRCWPRGFQSKHNSVTHVFGSGTQLTVLSQPKATPSVTLFPPSSEELQANKATLVCLMNDFYPGILTVTWKADGTPITQGVEMTTPSKQSNNKYAASSYLSLTPEQWRSRRSYSCQVMHEGSTVEKTVAPAECS
chain 2: B1 chain 2
B4: HC 4/SLC 15 (antibody)
chain 1: GQGTLVTVSSASTKQPVLHQPPAMSSALGTTIRLTCTLRNDHDIGVYSVYWYQQRPGHPPRFLLRYFSQSDKSQGPQVPPRFSGSKDVARNRGYLSISELQPEDEAMYYCAMGARSRCWPRGFQSKHNSVTHVFGSGTQLTVLSQPKATPSVTLFPPSSEELQANKATLVCLMNDFYPGILTVTWKADGTPITQGVEMTTPSKQSNNKYAASSYLSLTPEQWRSRRSYSCQVMHEGSTVEKTVAPAECS
chain 2: MSWAPVLLMLFVYCTGCGPQPVLHQPPAMSSALGTTIRLTCTLRNDHDIGVYSVYWYQQRPGHPPRFLLRYFSQSDKSQGPQVPPRFSGSKDVARNRGYLSISVTHVFGSGTQLTVLSQPKATPSVTGGGGSQVQLVQ
B5: HC 6/SLC 15 (antibody)
chain 1: GQGTLVTVSSASTKGPQPVLHQPPAMSSALGTTIRLTCTLRNDHDIGVYSVYWYQQRPGHPPRFLLRYFSQSDKSQGPQVPPRFSGSKDVARNRGYLSISELQPEDEAMYYCAMGARSRCWPRGFQSKHNSVTHVFGSGTQLTVLSQPKATPSVTLFPPSSEELQANKATLVCLMNDFYPGILTVTWKADGTPITQGVEMTTPSKQSNNKYAASSYLSLTPEQWRSRRSYSCQVMHEGSTVEKTVAPAECS
chain 2: B4 chain 2
B6: HC 4/SLC 9 (antibody)
chain 1: B4 chain 1
chain 2: MSWAPVLLMLFVYCTGCGPQPVLHQPPAMSSALGTTIRLTCTLRNDHDIGVYSVYWYQQRPGHPPRFLLRYFSQSDKSQGPQVPPRFSGSKDVARNRGYLSISVTHVFGSGTQLTVLSQPKATPSVQVQLVQ
B7: HC 2/SLC 15 (antibody)
chain 1: B1 chain 1
chain 2: B4 chain 2
B8: HC 4/SLC 10 (antibody)
chain 1: B4 chain 1
chain 2: MSWAPVLLMLFVYCTGCGPQPVLHQPPAMSSALGTTIRLTCTLRNDHDIGVYSVYWYQQRPGHPPRFLLRYFSQSDKSQGPQVPPRFSGSKDVARNRGYLSISVTHVFGSGTQLTVLSQPKATPSVTQVQLVQ
B9: HC 3/SLC 10 (antibody)
chain 1: GQGTLVTVSSASTQPVLHQPPAMSSALGTTIRLTCTLRNDHDIGVYSVYWYQQRPGHPPRFLLRYFSQSDKSQGPQVPPRFSGSKDVARNRGYLSISELQPEDEAMYYCAMGARSRCWPRGFQSKHNSVTHVFGSGTQLTVLSQPKATPSVTLFPPSSEELQANKATLVCLMNDFYPGILTVTWKADGTPITQGVEMTTPSKQSNNKYAASSYLSLTPEQWRSRRSYSCQVMHEGSTVEKTVAPAECS
chain 2: B8 chain 2
B10: HC 6/SLC 10 (antibody)
chain 1: B5 chain 1
chain 2: B8 chain 2
B11: HC 8/SLC 10 (antibody)
chain 1: GQGTLVTVSSASTKGPSVQPVLHQPPAMSSALGTTIRLTCTLRNDHDIGVYSVYWYQQRPGHPPRFLLRYFSQSDKSQGPQVPPRFSGSKDVARNRGYLSISELQPEDEAMYYCAMGARSRCWPRGFQSKHNSVTHVFGSGTQLTVLSQPKATPSVTLFPPSSEELQANKATLVCLMNDFYPGILTVTWKADGTPITQGVEMTTPSKQSNNKYAASSYLSLTPEQWRSRRSYSCQVMHEGSTVEKTVAPAECS
chain 2: B8 chain 2
B12: HC 10/SLC 9 (antibody)
chain 1: B3 chain 1
chain 2: B6 chain 2
B13: HC 5/SLC 8 (antibody)
chain 1: GQGTLVTVSSASTKGQPVLHQPPAMSSALGTTIRLTCTLRNDHDIGVYSVYWYQQRPGHPPRFLLRYFSQSDKSQGPQVPPRFSGSKDVARNRGYLSISELQPEDEAMYYCAMGARSRCWPRGFQSKHNSVTHVFGSGTQLTVLSQPKATPSVTLFPPSSEELQANKATLVCLMNDFYPGILTVTWKADGTPITQGVEMTTPSKQSNNKYAASSYLSLTPEQWRSRRSYSCQVMHEGSTVEKTVAPAECS
chain 2: MSWAPVLLMLFVYCTGCGPQPVLHQPPAMSSALGTTIRLTCTLRNDHDIGVYSVYWYQQRPGHPPRFLLRYFSQSDKSQGPQVPPRFSGSKDVARNRGYLSISVTHVFGSGTQLTVLSQPKATPSQVQLVQ
B14: HC 9/SLC 6 (antibody)
chain 1: GQGTLVTVSSASTKGPSVFQPVLHQPPAMSSALGTTIRLTCTLRNDHDIGVYSVYWYQQRPGHPPRFLLRYFSQSDKSQGPQVPPRFSGSKDVARNRGYLSISELQPEDEAMYYCAMGARSRCWPRGFQSKHNSVTHVFGSGTQLTVLSQPKATPSVTLFPPSSEELQANKATLVCLMNDFYPGILTVTWKADGTPITQGVEMTTPSKQSNNKYAASSYLSLTPEQWRSRRSYSCQVMHEGSTVEKTVAPAECS
chain 2: MSWAPVLLMLFVYCTGCGPQPVLHQPPAMSSALGTTIRLTCTLRNDHDIGVYSVYWYQQRPGHPPRFLLRYFSQSDKSQGPQVPPRFSGSKDVARNRGYLSISVTHVFGSGTQLTVLSQPKATQVQLVQ

The EC50 is the concentration giving half of the maximal effect.

In one assay the target is Hepatocyte Growth Factor (HGF), human (human, UniProt P14210 32-728). The experiment in a line: ELISA.
Chain of Hepatocyte Growth Factor (HGF), human (P14210 32-728): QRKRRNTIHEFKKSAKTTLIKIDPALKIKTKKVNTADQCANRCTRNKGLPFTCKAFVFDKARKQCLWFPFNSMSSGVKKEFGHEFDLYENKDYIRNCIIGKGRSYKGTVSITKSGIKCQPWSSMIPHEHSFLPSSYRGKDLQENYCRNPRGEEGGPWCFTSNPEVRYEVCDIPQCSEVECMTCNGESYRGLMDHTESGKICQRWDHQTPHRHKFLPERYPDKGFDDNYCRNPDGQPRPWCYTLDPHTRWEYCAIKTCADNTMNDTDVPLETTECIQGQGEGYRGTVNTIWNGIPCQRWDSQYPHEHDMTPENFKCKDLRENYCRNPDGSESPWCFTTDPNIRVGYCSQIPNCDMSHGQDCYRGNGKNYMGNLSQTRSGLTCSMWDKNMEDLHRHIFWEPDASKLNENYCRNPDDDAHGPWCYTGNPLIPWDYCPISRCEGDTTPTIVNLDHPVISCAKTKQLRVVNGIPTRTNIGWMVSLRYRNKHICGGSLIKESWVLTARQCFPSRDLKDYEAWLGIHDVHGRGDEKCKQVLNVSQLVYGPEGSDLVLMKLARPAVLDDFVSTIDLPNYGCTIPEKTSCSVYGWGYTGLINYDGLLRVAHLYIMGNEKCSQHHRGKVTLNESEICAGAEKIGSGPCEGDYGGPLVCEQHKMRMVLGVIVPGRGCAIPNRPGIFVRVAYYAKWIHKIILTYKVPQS
Regarding B1, the EC50 was determined as 0.051 nM.
On the same count and under the same terms, to B2 belongs 0.058 nM; to B3, 0.063 nM; to B4, roughly 0.041 nM.
The molecule B5 displayed an EC50 of 0.05 nM.
Still for that read-out and setting: for B6 the value was 0.045 nM; for B7, 0.041 nM.
B8 had an EC50 of roughly 0.041 nM.
B9: the EC50 is roughly 0.041 nM.
Still for that read-out and setting: to B10 belongs roughly 0.041 nM; to B11, roughly 0.041 nM.
Take B12: the EC50 came to 0.053 nM.
The same measure, in the same setting: for B13 the value was 0.055 nM.
B14 had an EC50 of 0.059 nM.

The target of a further assay is T1, Placenta Growth Factor (PlGF), human. Kind of assay: ELISA. Background: An ELISA detects its analyte on a solid surface through an enzyme-linked reagent.
Consider B1, for which the EC50 was found to be 0.049 nM.
On the same count and under the same terms, for B2 the value was 0.046 nM; for B3, 0.166 nM; for B4, 0.057 nM.
Still for that read-out and setting: for B5 the value was 0.046 nM; for B6, 0.101 nM; for B7, 0.053 nM.
Same read-out and setting: to B12 belongs 0.039 nM.
In turn, B13 showed an EC50 of 0.115 nM.
B14 gave an EC50 of 0.096 nM.
